Reference: US20200261603A1 (published 2020)
Changes are numbered by the printed parent chain. Like-named read-outs stand apart in the source and are kept apart here.

Tests used:
[1] = target: T1, human cancer-specific MUC1 (human, UniProt P15941 24-1255, cancer-specific incomplete O-glycosylation (T, Tn, 2,3ST) of threonine at position 9 of the 20-amino acid tandem repeat … (SEQ ID NO: 15), as the background describes it); assay: Cell ELISA
[2] = target: T1, human cancer-specific MUC1; assay: Cell ELISA; remark: listed apart in the source

B1: P10-1 Fab (Fab, V domains shown)
VH: QVQLVQSGAEVKKPGASVKVSCKASGYTFTNYGLSWVRQAPGQGLEWMGENHPGSGIIYHNEKFRGRVTLTADRSTSTAYMELSSLRSEDTAVYYCARSSGTRGFAYWGQGTLVTVSS
VL: DVVMTQTPLSLSVTPGQPASISCRSSQSIVHSNGNTYLEWYLQKPGQSPQLLIYRVSNRFSGVPDRFSGSGSGTDFTLKISRVEAEDVGVYYCFQGSHGPWTFGQGTKLEIKR
[1]
  Kd: 0.35 nM

B2: P10-2 Fab Dye (Fab, V domains shown)
VH: B1 VH with A106D
VL: B1 VL
modifications: IRDye800CW (NHS ester) on Lys of the Fab fragment; number and positions not stated; IRDye800CW (NHS ester) on Lys of the Fab fragment; number and positions not stated; N-terminal glutamine largely pyroglutamic acid
[1]
  Kd: 0.49 nM

B3: P10-2 Fab DFO (Fab, V domains shown)
VH: B1 VH with A106D
VL: B1 VL
modifications: p-SCN-Bn-deferoxamine on Lys of the Fab fragment; number and positions not stated; p-SCN-Bn-deferoxamine on Lys of the Fab fragment; number and positions not stated; N-terminal glutamine largely pyroglutamic acid
[2]
  Kd: 0.36 nM

B4: P10-2 Fab (Fab, V domains shown)
VH: B1 VH with A106D
VL: B1 VL
modifications: heavy chain N-terminal glutamine was modified into pyroglutamic acid in a great majority of purified antibodies
[2]
  Kd: 0.37 nM
[1]
  Kd: 0.29 nM

B5: P10-1 Fab Dye (Fab, V domains shown)
VH: B1 VH
VL: B1 VL
modifications: IRDye800CW (NHS ester) on Lys of the Fab fragment; number and positions not stated
[1]
  Kd: 0.66 nM
